Results published in paper doi:10.1101/2023.07.14.549122.

T1: short pAgo (SPARTA);TIR-APAZ (SPARTA) (Crenotalea thermophila;Crenotalea …, UniProt A0A1I7NFD7;A0A1I7NFG5 1-507;1-450, |)
T1 sequence 1: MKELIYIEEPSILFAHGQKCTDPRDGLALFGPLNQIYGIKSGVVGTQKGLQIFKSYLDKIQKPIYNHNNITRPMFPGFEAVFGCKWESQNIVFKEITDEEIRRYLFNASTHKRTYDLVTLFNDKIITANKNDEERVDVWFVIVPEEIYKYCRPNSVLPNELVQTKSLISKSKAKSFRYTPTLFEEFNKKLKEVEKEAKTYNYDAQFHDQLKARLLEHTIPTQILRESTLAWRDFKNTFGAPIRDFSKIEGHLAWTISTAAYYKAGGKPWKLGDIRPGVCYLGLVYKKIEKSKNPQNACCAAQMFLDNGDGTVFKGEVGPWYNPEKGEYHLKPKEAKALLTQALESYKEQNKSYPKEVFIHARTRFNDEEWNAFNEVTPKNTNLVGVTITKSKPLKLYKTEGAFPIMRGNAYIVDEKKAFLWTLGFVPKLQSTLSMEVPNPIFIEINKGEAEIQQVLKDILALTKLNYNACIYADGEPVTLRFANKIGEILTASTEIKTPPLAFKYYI
T1 sequence 2: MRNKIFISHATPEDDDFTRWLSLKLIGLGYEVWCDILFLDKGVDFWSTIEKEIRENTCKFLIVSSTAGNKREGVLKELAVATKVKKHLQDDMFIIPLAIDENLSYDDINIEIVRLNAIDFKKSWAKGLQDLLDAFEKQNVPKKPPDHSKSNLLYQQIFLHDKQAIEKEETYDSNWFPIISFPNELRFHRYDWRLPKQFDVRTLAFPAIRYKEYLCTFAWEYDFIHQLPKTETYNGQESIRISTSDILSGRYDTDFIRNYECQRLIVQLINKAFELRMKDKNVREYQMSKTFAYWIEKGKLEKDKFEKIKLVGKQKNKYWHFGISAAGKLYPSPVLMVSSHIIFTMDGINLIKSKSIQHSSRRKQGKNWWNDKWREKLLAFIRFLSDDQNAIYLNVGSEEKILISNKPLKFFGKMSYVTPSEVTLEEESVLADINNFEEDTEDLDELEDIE


Assays:
[1] = target: Crenotalea thermophila SPARTA complex (heterodimer of TIR-APAZ and short pAgo) (Crenotalea thermophila); experiment: cryo-EM structure
[2] = target: T1, short pAgo (SPARTA);TIR-APAZ (SPARTA); experiment: cryoEM structure

Row | stoichiometry N [1] | Molecule | binding result [2]
1 | 4 | Crenotalea thermophila SPARTA complex (heterodimer of TIR-APAZ and short pAgo) | 
2 |  | gRNA-target ssDNA (25 nt target) (DNA:RNA, 5'-phosphate on gRNA) RNA: AAACGGCUCUAAUCUAUUAGU DNA: CAACTAATAGATTAGAGCCGTTTAT | binds
